Test results: patent US20190046655A1 (ARBELE, published 2019)
Where a chain is given by its changes, count along the chain named.

Biological target: T1, cadherin-17 (CDH17), ELISA antigen (UniProt Q12864 23-787, limits assumed)
T1 construct: also called liver-intestine cadherin
Assay: ELISA

B1: Lic3 scFv (scFv, V domains shown)
VH: EVQLVESGGGLVKPGGSLKLSCAASGFSFSDYYMYWVRQAPEKRLEWVASISFDGTYTYYTDRVKGRFTISRDNAKNNLYLQMSSLKSEDTAMYYCARDRPAWFPYWGQGTLVTVSA
VL: DVLMTQIPLSLTVSLGDQASISCRSSQSIVHSNGNTYLEWYLQRPGQSPKLLIYKVSNRFSGVPDRFSGSGSGTDFTLKISRVEAEDLGVYYCFQGSHVPLTFGAGTKLELK
notes: Tested as a single-chain Fv; also called scFv lic 3; mouse CDH17 antibody Lic3 scFv
B1 gave a Kd of 11.9 nM.

B2: Lic5 scFv (scFv, V domains shown)
VH: B1 VH with V5E, S21P, F27S, Y32F, A40T
VL: DIVLTQTTLSLNVSLGDQASISCRSSQSIVHSNGNTYLEWYLQRPGQSPKLLIYKVSNRFSGVPDRFSGSGSGTDFTLKISRVEAEDLGVYYCFQGSHVPLTFGAGTKLELKR
notes: Tested as a single-chain Fv; also called scFv lic5; mouse CDH17 antibody Lic5 scFv
B2 was tested, and the Kd was 22.1 nM.
